# T1: Rb^P S474I (human, UniProt P06400 380-788, S474I)
# T1 sequence: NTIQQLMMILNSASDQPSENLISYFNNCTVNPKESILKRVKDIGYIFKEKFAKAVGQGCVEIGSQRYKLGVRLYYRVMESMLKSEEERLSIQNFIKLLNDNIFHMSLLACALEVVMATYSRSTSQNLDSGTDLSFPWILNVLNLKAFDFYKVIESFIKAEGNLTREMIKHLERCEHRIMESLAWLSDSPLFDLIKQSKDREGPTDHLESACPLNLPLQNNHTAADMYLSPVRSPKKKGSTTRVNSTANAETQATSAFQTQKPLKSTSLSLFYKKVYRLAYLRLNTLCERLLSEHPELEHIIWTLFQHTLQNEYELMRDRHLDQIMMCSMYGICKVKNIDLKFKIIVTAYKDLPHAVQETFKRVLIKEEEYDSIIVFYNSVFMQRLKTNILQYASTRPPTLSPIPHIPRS
# T2: Rb^P M695I (human, UniProt P06400 380-788, M695I)
# T2 sequence: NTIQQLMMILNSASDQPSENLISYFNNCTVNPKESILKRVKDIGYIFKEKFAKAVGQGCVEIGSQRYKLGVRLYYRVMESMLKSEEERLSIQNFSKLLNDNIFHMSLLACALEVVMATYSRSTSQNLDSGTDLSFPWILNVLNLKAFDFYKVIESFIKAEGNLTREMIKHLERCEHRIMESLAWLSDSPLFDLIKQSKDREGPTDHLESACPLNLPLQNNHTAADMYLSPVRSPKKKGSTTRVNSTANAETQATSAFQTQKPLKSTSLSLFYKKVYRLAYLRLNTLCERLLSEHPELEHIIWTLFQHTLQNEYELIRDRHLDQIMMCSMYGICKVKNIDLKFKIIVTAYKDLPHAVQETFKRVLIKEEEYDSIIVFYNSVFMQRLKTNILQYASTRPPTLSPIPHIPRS
# T3: Rb^P R763T (human, UniProt P06400 380-788, R763T)
# T3 sequence: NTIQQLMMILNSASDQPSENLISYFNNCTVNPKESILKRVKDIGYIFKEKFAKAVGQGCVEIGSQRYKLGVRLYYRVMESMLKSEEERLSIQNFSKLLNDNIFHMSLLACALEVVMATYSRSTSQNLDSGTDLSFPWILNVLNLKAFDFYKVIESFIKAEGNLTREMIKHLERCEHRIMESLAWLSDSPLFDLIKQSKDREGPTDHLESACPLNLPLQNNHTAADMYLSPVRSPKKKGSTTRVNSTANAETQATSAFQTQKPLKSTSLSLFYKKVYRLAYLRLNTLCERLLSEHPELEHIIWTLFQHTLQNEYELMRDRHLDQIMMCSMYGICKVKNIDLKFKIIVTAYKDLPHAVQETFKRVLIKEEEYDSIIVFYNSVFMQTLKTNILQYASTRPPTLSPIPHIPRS
# T4: wild type Rb pocket domain (Rb^P) (human, UniProt P06400 380-788)
# T4 sequence: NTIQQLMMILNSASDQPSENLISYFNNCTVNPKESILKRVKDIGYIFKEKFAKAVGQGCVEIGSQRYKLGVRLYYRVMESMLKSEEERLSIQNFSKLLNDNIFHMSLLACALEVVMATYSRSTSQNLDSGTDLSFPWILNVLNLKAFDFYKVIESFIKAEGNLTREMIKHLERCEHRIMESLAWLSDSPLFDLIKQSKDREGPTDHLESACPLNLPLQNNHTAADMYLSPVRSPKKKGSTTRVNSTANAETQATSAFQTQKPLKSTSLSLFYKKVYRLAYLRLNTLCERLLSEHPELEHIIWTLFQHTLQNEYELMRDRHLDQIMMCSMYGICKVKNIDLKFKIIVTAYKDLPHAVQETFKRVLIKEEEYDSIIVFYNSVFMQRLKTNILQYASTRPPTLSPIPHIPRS
# T5: Rb^P I703F (human, UniProt P06400 380-788, I703F)
# T5 sequence: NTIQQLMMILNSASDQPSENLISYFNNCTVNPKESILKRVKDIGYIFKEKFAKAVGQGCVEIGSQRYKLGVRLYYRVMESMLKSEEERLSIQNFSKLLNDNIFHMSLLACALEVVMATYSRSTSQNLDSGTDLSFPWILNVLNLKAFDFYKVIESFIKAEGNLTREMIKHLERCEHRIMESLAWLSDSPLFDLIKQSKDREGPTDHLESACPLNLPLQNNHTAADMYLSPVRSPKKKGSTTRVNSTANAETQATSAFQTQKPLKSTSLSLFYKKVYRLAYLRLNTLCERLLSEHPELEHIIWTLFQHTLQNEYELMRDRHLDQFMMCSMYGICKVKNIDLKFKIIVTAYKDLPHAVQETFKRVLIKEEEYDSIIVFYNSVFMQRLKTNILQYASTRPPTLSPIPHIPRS
# How the values were obtained:
# Test in all cases: fluorescence polarisation
# Rb^P S474I = molecular target: T1, Rb^P S474I
# Rb^P M695I = molecular target: T2, Rb^P M695I
# Rb^P R763T = molecular target: T3, Rb^P R763T
# [1] = molecular target: T4, wild type Rb pocket domain (Rb^P)
# Rb^P I703F = molecular target: T5, Rb^P I703F
binder,measurement,setting,value
"DLYCYEQLN (not fully specified; TMR fluorescent label (TMR-E7^LxCxE)) [TMR-E7^LxCxE (LxCxE peptide of the E7 oncoprotein from HPV, TMR-labeled)]",binding result,Rb^P S474I,binds
same,binding result,Rb^P M695I,binds
same,binding result,Rb^P R763T,binds
same,Kd,[1],5 nM
same,Kd,Rb^P I703F,16 nM

# Reference: paper doi:10.1101/2024.09.22.614354 (bioRxiv, 2024)
